# B1: TT-Ab4 (antibody, V domains shown)
# VH: EVQLVQSGAEMKKPGSSVKVSCRMSGGKFNNYAMSWVRQAPGQGLEWVGGIIPVLGTANYAQKFQDRVAITADKSTNTAYMELSSLRSDDTAVYYCARVWGTVVTQGPSQVQYNHYGMDVWGQGTTVTVSS
# VL: DIQLTQSPSSLSASVGDRVTITCRATQSISSSLNWYQHKPGKAPNLLISAASNLQSGVPSRFSGSGSRTDFTLTITNLQPEDFATYYCQQSYTTPLTFGGGTKVEIK
# B2: TT-Ab9 (antibody, V domains shown)
# VH: EVQLVESGGSLVQPGGSLRLSCVGTGFTFNTYWMSWVRQAPGKGLEWVANIKQDGREKHYVDSVMGRFTVSRDNAMNALYLQVNSLRVEDTAVYYCARGMTAWSLGGYQYDYWGQGTQVTVSS
# VL: DIQMTQSPSSLSASVGDTVTITCRASQGIRSDLGWYQQRPGKAPKLLVYTASTLQTGVPSRFSGSGFGTDFTLTISSLQPEDFATYYCLQNYNYPRTFGQGTKVEIK
# B3: TT-Ab12 (antibody, V domains shown)
# VH: QVQLQESGPGLVKPSETLSLTCNVSGASISRYYWAWIRQPPGKGLEWIGYIYDSGTTTYNTSLKSRVTISRDTSKNQFSLNMMSVTAADTAVYYCARARYYYDSTGYFYGWLDPWGQGRLVTVSF
# VL: DIQMTQSPSTLSASVGDRVTITCRASQSINIWLAWYQQRPGKAPDLLIYKASTLQSGVPSRFSGSGSGTEFTLTISSVQPDDFATYYCQQYKSYSCSFGQGTKVEIN
# B4: TT-Ab10 (antibody, V domains shown)
# VH: EVQLVESGGGLVQPGGSLRVSCGASGFTFANFWMSWVRQAPGKGLEWVANINQDGNERKYVDSVKGRFTISRDNDKNSLYLQMNSLRAEDTAVYFCAREYGSYWRTYYFDDWGQGTLVTVSS
# VL: DIVMTQSPATLSLSPGERATLSCRASQSVSNYLAWYQQKPGQAPRLLIYDASNRASGTPARFSGSGFGTDFTLTISSLDPEDFAVYYCQQGSNWLTFGGGTKVEIK
# B5: TT-Ab7 (antibody, V domains shown)
# VH: EVQLVESGGGWVQPGGSLRLSCAASGFTFNSFGSYGMSWVRQAPGKGLEWVSHISASGAATYYADSVKGRFTISRDNSKNTLLLQMNDLRGEDTATYYCARSVQQYLGLLGYWGQGTLVTVSS
# VL: QSVLTQSPSASASLGATVKLTCTLSSGHTNYAIAWHQLQPQKAPRYLLKISNDGSHKRGDGIPDRFSGSSSGAERYLTISSLQSEDEAEYYCQTWGAGMGMFGGGTKLTVL
# Target: T1, tetanus toxoid (UniProt P04958 1-1315)
# T1 chain: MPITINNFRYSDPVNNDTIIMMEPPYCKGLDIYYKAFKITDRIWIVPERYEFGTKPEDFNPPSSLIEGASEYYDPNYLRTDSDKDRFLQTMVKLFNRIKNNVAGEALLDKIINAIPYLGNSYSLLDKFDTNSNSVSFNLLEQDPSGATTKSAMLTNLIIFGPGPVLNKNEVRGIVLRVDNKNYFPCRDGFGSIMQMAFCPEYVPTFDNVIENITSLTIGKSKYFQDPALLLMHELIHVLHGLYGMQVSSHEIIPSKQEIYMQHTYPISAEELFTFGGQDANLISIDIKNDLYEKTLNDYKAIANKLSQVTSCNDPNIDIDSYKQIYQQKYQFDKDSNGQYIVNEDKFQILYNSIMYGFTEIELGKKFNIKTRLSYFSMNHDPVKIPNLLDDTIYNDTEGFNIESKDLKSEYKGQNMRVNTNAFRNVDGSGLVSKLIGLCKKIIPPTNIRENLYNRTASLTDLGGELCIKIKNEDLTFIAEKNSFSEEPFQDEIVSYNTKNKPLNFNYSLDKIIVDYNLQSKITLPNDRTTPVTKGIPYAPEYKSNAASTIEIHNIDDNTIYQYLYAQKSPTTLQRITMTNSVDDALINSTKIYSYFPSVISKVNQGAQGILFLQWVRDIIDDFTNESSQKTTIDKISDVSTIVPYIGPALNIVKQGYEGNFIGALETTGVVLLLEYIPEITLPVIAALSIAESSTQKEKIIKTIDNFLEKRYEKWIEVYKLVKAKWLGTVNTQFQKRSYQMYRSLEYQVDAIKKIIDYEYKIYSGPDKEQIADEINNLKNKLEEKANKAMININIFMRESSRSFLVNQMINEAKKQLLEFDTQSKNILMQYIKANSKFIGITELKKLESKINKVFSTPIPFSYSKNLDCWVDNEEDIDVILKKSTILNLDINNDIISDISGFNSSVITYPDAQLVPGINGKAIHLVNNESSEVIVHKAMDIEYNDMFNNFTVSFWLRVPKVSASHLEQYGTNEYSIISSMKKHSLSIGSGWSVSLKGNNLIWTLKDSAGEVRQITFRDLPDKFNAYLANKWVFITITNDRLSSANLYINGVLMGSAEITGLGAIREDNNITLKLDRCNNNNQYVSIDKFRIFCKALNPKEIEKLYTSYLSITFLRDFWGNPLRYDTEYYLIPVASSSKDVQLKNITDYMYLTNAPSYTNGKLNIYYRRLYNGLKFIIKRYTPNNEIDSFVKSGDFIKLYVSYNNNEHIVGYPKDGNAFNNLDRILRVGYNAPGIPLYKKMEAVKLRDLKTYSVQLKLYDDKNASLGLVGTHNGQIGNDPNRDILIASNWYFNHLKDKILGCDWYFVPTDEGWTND
# Assay: ELISA
row,Binder,EC50 [nM]
1,B1,1060
2,B2,1050
3,B3,228
4,B4,869
5,B5,655

# Reference: PMC5551578 (2017)
